Measurements reported in the supplement of paper PMC10567573.

B1: HMOX1 (parent)
chain: YHIYVALEEEIERNKESPVFAPVY

Variants of: B1
Assay: protein stability index of a GFP-peptide fusion (GPS, HEK-293T) (PSI 1-6); higher = more stable
Settings: c terminus: a fixed tail appended
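Note: lentivirally expressed fusions sorted by FACS into six bins by GFP to DsRed ratio, PSI derived from sequencing read proportions per bin multiplied by bin number.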

Protein stability index of substitutions, site by site:
V19: D 2.7, A 2.3, F 1.84, G 2.37, P 2.35, C 1.81, R 3.44, L 1.7, T 2.32, H 2.13, Y 1.46, I 1.72, W 1.57, N 2.69, E 2.93, S 2.15, K 1.99, M 2.24, Q 2.14
R13: D 1.52, K 2.14, C 1.39, V 2.02, L 1.22, Q 1.54, T 1.19, M 1.4, N 1.23, S 2.23, W 2.25, P 2.11, I 2.02, G 1.55, A 1.34, F 2.97, E 1.34, H 1.75
N14: Q 2.62, M 2.31, T 2.81, A 1.72, E 1.98, D 2.06, I 1.26, S 2.54, Y 1.45, F 2.15, G 1.98, L 2.05, K 2.12, C 1.32, V 1.49, R 2.32, H 2.14
S17: Y 1.26, N 2.05, L 2.19, C 1.86, Q 1.57, M 1.93, P 2.02, H 1.83, I 2.46, T 1.69, F 1.88, E 1.85, G 2.29, W 2.65, V 1.65, K 2.14, A 2.27, D 2.3, R 2.2
P18: T 2.06, N 2.36, R 1.98, E 2.59, F 1.79, H 2.23, L 1.53, A 2.14, G 2.46, K 2.03, Y 1.89, Q 1.61, M 1.75, W 2.31, V 1.59, S 2.13, C 1.85, I 1.49, D 2.3
F20: H 2.47, V 3.06, W 2.41, C 3.24, T 2.57, L 2.66, E 2.52, I 2.25, S 2.78, A 2.41, R 2.95, K 2.27, D 2.95, Q 2.42, G 3.15, M 2.81, Y 2.19, N 2.78, P 2.82
K15: P 1.53, L 2.22, N 1.7, C 2.2, W 2.21, Q 2.59, A 2.92, S 1.98, R 1.38, V 1.83, G 1.9, H 1.42, D 1.57, E 1.37, Y 2.13, I 1.87, T 1.36, F 2.13
E12: T 1.85, V 1.93, W 2.27
A21: G 2.43, D 2.91, N 2.31, I 1.87, K 2.8, E 2.41, F 2.21, L 1.58, H 2.06, T 2, C 1.72, P 2.06, Q 2.41, R 2.2, S 2.02, M 1.99
E16: T 2.12, C 1.57, K 2.13, R 1.8, F 2.84, N 2.25, H 2.08, Y 1.88, L 2.32, Q 2.11, D 1.59, P 2.23, V 2.14, M 1.8, A 2.67, G 2.04, I 1.42, S 2.04, W 2.14
